{
  "source": "paper PMC9860497",
  "biological_target": "14-3-3γ (UniProt P61982)",
  "test": "anti-Flag co-IP, anti-HA blot",
  "details": "reference: wild-type HA-TMCC3-D1; sites S15",
  "data": [
    {"substance": "TMCC3 TMCC3-D1, 1-210 (from UniProt Q8R310) HA-TMCC3-D1-S15A", "values": [
      {"measurement": "binding against the reference", "value": "weaker"}
    ]}
  ]
}
